According to publication PMC4143292, “An Enzymatic Platform for the Synthesis of Isoprenoid Precursors” (PLoS ONE, 2014):

B1: ACS (acetyl-CoA synthetase) (Saccharomyces cerevisiae S288C) (protein)
chain: MSPSAVQSSKLEEQSSEIDKLKAKMSQSAATAQQKKEHEYEHLTSVKIVPQRPISDRLQPAIATHYSPHLDGLQDYQRLHKESIEDPAKFFGSKATQFLNWSKPFDKVFIPDPKTGRPSFQNNAWFLNGQLNACYNCVDRHALKTPNKKAIIFEGDEPGQGYSITYKELLEEVCQVAQVLTYSMGVRKGDTVAVYMPMVPEAIITLLAISRIGAIHSVVFAGFSSNSLRDRINDGDSKVVITTDESNRGGKVIETKRIVDDALRETPGVRHVLVYRKTNNPSVAFHAPRDLDWATEKKKYKTYYPCTPVDSEDPLFLLYTSGSTGAPKGVQHSTAGYLLGALLTMRYTFDTHQEDVFFTAGDIGWITGHTYVVYGPLLYGCATLVFEGTPAYPNYSRYWDIIDEHKVTQFYVAPTALRLLKRAGDSYIENHSLKSLRCLGSVGEPIAAEVWEWYSEKIGKNEIPIVDTYWQTESGSHLVTPLAGGVTPMKPGSASFPFFGIDAVVLDPNTGEELNTSHAEGVLAVKAAWPSFARTIWKNHDRYLDTYLNPYPGYYFTGDGAAKDKDGYIWILGRVDDVVNVSGHRLSTAEIEAAIIEDPIVAECAVVGFNDDLTGQAVAAFVVLKNKSSWSTATDDELQDIKKHLVFTVRKDIGPFAAPKLIILVDDLPKTRSGKIMRRILRKILAGESDQLGDVSTLSNPGIVRHLIDSVKL
B2: MVK (mevalonate kinase) (Staphylococcus aureus) (protein)
chain: MTRKGYGESTGKIILIGEHAVTFGEPAIAVPFNAGKIKVLIEALESGNYSSIKSDVYDGMLYDAPDHLKSLVNRFVELNNITEPLAVTIQTNLPPSRGLGSSAAVAVAFVRASYDFLGKSLTKEELIEKANWAEQIAHGKPSGIDTQTIVSGKPVWFQKGQAETLKTLSLDGYMVVIDTGVKGSTRQAVEDVHKLCEDPQYMSHVKHIGKLVLRASDVIEHHNFEALADIFNECHADLKALTVSHDKIEQLMKIGKENGAIAGKLTGAGRGGSMLLLAKDLPTAKNIVKAVEKAGAAHTWIENLGG
notes: N-terminal His9-GST tag removed with PreScission protease; expressed in E. coli BL21(DE3)

What was measured:
purified protein = substrate: CC(=O)O; experiment: purified protein; settings: CoA 2.0 mM, ATP 4.0 mM, MgCl2 1.0 mM + nucleotide, KCl 50 mM, Hepes pH 8.0, 25 C, apparent
[1] = substrate: CC(C)(COP(=O)(O)OP(=O)(O)OC[C@H]1O[C@@H](n2cnc3c(N)ncnc32)[C@H](O)[C@@H]1OP(=O)(O)O)[C@@H](O)C(=O)NCCC(=O)NCCS; experiment: coupled NADH oxidation, progress curves; type: biochemical, Saccharomyces cerevisiae; settings: acetate 2.0 mM, ATP 4.0 mM, MgCl2 1.0 mM + nucleotide, KCl 50 mM, Hepes pH 8.0, 25 C, apparent
Text: coupled NADH oxidation, progress curves on ACS (acetyl-CoA synthetase)

[2] = substrate: C[C@@](O)(CCO)CC(=O)O; experiment: PK/LDH-coupled NADH oxidation, progress curves; type: biochemical, Staphylococcus aureus; settings: ATP 5.0 mM, MgCl2 1.0 mM + nucleotide, KCl 50 mM, Hepes pH 8.0, 25 C, apparent
Text: PK/LDH-coupled NADH oxidation, progress curves on MVK (mevalonate kinase)

Protein	Km (purified protein) [µM]	kcat (purified protein) [s⁻¹]	Km [1] [µM]	kcat [1] [s⁻¹]	Km [2] [µM]	kcat [2] [s⁻¹]
B1	280	10	240	10		
B2					27	19
